{"source": "patent US20190030139", "key": {"[1]": {"tested_on": "T1, USP10 S76 peptide", "T1 sequence": "TLPRTPSYSISST"}, "[2]": {"tested_on": "SAMS peptide (Abcam)"}, "[3]": {"tested_on": "Ubiquitinated AMPKα1"}, "[4]": {"tested_on": "Ubiquitinated AMPKα2"}}, "data": [{"substance": "Purified AMPK (Upstate Biotechnology)", "values": [{"measurement": "initial rate of phosphorylation (in vitro kinase assay, 32P incorporation)", "setting": "[1]", "result": "155±36", "unit": "pmol/min/reaction mix"}, {"measurement": "maximal stoichiometry of phosphorylation", "setting": "[1]", "result": "0.46±0.04", "unit": "mol/mol"}, {"measurement": "initial rate of phosphorylation (in vitro kinase assay, 32P incorporation)", "setting": "[2]", "result": "95±18", "unit": "pmol/min/reaction mix"}, {"measurement": "maximal stoichiometry of phosphorylation", "setting": "[2]", "result": "0.35±0.02", "unit": "mol/mol"}]}, {"substance": "USP10CA (catalytically inactive CA mutant, recombinant)", "values": [{"measurement": "in vitro deubiquitination assay, immunoblot (FIG. 4C)", "setting": "[3]", "result": "the catalytically inactive CA mutant could not"}, {"measurement": "in vitro deubiquitination assay, immunoblot (FIG. 3H)", "setting": "[4]", "result": "the catalytically inactive CA mutant could not"}]}]}
